Sequences and labels used below:
B1: Extracellular Ig2 domain of Robo1 fused with GST (other, human, UniProt Q9Y6N7 170-257, looked up)
chain: DDFRQNPSDVMVAVGEPAVMECQPPRGHPEPTISWKKDGSPLDDKDERITIRGGKLMITYTRKSDAGKYVCVGTNMVGERESEVAELT
notes: domain: extracellular Ig2 domain; also called GST-Ig2; not shown: glutathione S-transferase of the PGEX6P1 vector
B2: Native Rspo1 of mouse small intestinal crypts (ligand, UniProt Q9Z132 21-265, looked up)
chain: SRGIKGKRQRRISAEGSQACAKGCELCSEVNGCLKCSPKLFILLERNDIRQVGVCLPSCPPGYFDARNPDMNKCIKCKIEHCEACFSHNFCTKCQEALYLHKGRCYPACPEGSTAANSTMECGSPAQCEMSEWSPWGPCSKKRKLCGFRKGSEERTRRVLHAPGGDHTTCSDTKETRKCTVRRTPCPEGQKRRKGGQGRRENANRHPARKNSKEPRSNSRRHKGQQQPQPGTTGPLTSVGPTWAQ
B3: Endogenous Robo1 of mouse small intestinal crypts (receptor, UniProt O89026 20-1612, looked up)
chain: SRLRQEDFPPRIVEHPSDLIVSKGEPATLNCKAEGRPTPTIEWYKGGERVETDKDDPRSHRMLLPSGSLFFLRIVHGRKSRPDEGVYICVARNYLGEAVSHNASLEVAILRDDFRQNPSDVMVAVGEPAVMECQPPRGHPEPTISWKKDGSPLDDKDERITIRGGKLMITYTRKSDAGKYVCVGTNMVGERESEVAELTVLERPSFVKRPSNLAVTVDDSAEFKCEARGDPVPTVRWRKDDGELPKSRYEIRDDHTLKIRKVTAGDMGSYTCVAENMVGKAEASATLTVQEPPHFVVKPRDQVVALGRTVTFQCEATGNPQPAIFWRREGSQNLLFSYQPPQSSSRFSVSQTGDLTITNVQRSDVGYYICQTLNVAGSIITKAYLEVTDVIADRPPPVIRQGPVNQTVAVDGTLILSCVATGSPAPTILWRKDGVLVSTQDSRIKQLESGVLQIRYAKLGDTGRYTCTASTPSGEATWSAYIEVQEFGVPVQPPRPTDPNLIPSAPSKPEVTDVSKNTVTLSWQPNLNSGATPTSYIIEAFSHASGSSWQTAAENVKTETFAIKGLKPNAIYLFLVRAANAYGISDPSQISDPVKTQDVPPTSQGVDHKQVQRELGNVVLHLHNPTILSSSSVEVHWTVDQQSQYIQGYKILYRPSGASHGESEWLVFEVRTPTKNSVVIPDLRKGVNYEIKARPFFNEFQGADSEIKFAKTLEEAPSAPPRSVTVSKNDGNGTAILVTWQPPPEDTQNGMVQEYKVWCLGNETKYHINKTVDGSTFSVVIPSLVPGIRYSVEVAASTGAGPGVKSEPQFIQLDSHGNPVSPEDQVSLAQQISDVVRQPAFIAGIGAACWIILMVFSIWLYRHRKKRNGLTSTYAGIRKVPSFTFTPTVTYQRGGEAVSSGGRPGLLNISEPATQPWLADTWPNTGNNHNDCSINCCTAGNGNSDSNLTTYSRPADCIANYNNQLDNKQTNLMLPESTVYGDVDLSNKINEMKTFNSPNLKDGRFVNPSGQPTPYATTQLIQANLSNNMNNGAGDSSEKHWKPPGQQKPEVAPIQYNIMEQNKLNKDYRANDTIPPTIPYNQSYDQNTGGSYNSSDRGSSTSGSQGHKKGARTPKAPKQGGMNWADLLPPPPAHPPPHSNSEEYNMSVDESYDQEMPCPVPPAPMYLQQDELQEEEDERGPTPPVRGAASSPAAVSYSHQSTATLTPSPQEELQPMLQDCPEDLGHMPHPPDRRRQPVSPPPPPRPISPPHTYGYISGPLVSDMDTDAPEEEEDEADMEVAKMQTRRLLLRGLEQTPASSVGDLESSVTGSMINGWGSASEEDNISSGRSSVSSSDGSFFTDADFAQAVAAAAEYAGLKVARRQMQDAAGRRHFHASQCPRPTSPVSTDSNMSAVVIQKARPAKKQKHQPGHLRREAYADDLPPPPVPPPAIKSPTVQSKAQLEVRPVMVPKLASIEARTDRSSDRKGGSYKGREALDGRQVTDLRTNPSDPREAQEQPNDGKGRGTRQPKRDLPPAKTHLGQEDILPYCRPTFPTSNNPRDPSSSSSMSSRGSGSRQREQANVGRRNMAEMQVLGGFERGDENNEELEETES
notes: also called native Robo1
B4: Extracellular Ig5 domain of Robo1 fused with GST (other, human, UniProt Q9Y6N7 455-541, looked up)
chain: PVIRQGPVNQTVAVDGTFVLSCVATGSPVPTILWRKDGVLVSTQDSRIKQLENGVLQIRYAKLGDTGRYTCIASTPSGEATWSAYIE
notes: domain: extracellular Ig5 domain; also called GST-Ig5; not shown: glutathione S-transferase of the PGEX6P1 vector
B5: Carboxyl-terminal segment of Rspo1 including one TSR repeat, fused with 6-His tag (ligand, human, UniProt Q2MKA7 147-263, looked up)
chain: QCEMSEWSPWGPCSKKQQLCGFRRGSEERTRRVLHAPVGDHAACSDTKETRRCTVRRVPCPEGQKRRKGGQGRRENANRNLARKESKEAGAGSRRRKGQQQQQQQGTVGPLTSAGPA
notes: domain: carboxyl-terminus of Rspo1 containing one TSR repeat; also called rRspo1-C; Rspo1-C; not shown: 6-His tag of the PETM vector

Assay [1] deals with T1, Recombinant human Rspo1 fused with 6-His (His) tag expressed in Sf9 insect cells (human, UniProt Q2MKA7 21-263).
T1 construct: Baculovirus expression; also called rRspo1; R-spondin 1; not shown: 6-His tag
As to the kind of experiment: glutathione-Sepharose pulldown, immunoblot. The protocol:
(§1) To confirm our initial findings, various deletion mutants of Robo1 fused with hemagglutin (HA) tag were employed (FIG. 15B) (see, e.g., Wong, K., et al., (2001) Cell 107, 209-221). Recombinant human Rspo1 fused with 6-His (His) tag expressed in Sf9 insect cells (rRspo1; FIG. 15C and FIG. 17B) were also purified. […] Following incubation, immunoprecipitation was performed by the anti-HA Ab, followed by immunoblotting with the Abs for rRspo1 (His) and Robo1 (HA). […] Compared to human IgG (hIgG) bound Protein A (Pro-A) beads, recombinant Robo1-Fc chimera (rRobo1-Fc; FIG. 17C) bound Pro-A beads precipitated rRspo1 (His; FIG. 15E and FIG. 16C). Additionally, rRobo1-Fc bound Pro-A beads precipitated purified recombinant Rspo1-N (rRspo1-N), but not recombinant Rspo1-C (rRspo1-C; FIGS. 15C and F and FIGS. 16D and 17B). To determine which extracellular Ig domains of Robo1 could recognize Rspo1, recombinant extracellular Ig domains 1-5 of Robo1 fused with glutathione S-transferase were constructed, expressed and purified (GST-Ig1-5; FIG. 15B and FIG. 16D).
For the pulldown assay, 3 μg of the appropriate purified GST-tagged fusion protein and isolated His-tagged fusion protein were incubated with 20 μl glutathione Sepharose beads (GE Healthcare Biosciences) in PBS containing 1% BSA at 4° C. for 2 h. […]

Assay [2] deals with B3. As to the kind of experiment: co-immunoprecipitation from mouse intestinal crypt lysates, immunoblot. How it is done: 293 cells were co-transfected with the plasmids of Robo1 or Robo1-dCC3 and LRP6. Transfected Robo1 was immunoprecipitated by the anti-HA Ab, followed by immunoblotting for LRP6 (myc) and Robo1 (HA). (L) LRP6 interacts with CC3. 293 cells transfected with the LRP6 plasmid were incubated with rCC0/1, rCC2 and rCC3. After washing, transfected LRP6 was immunoprecipitated by the anti-HA Ab, followed by immunoblotting for rCC0/1, rCC2 and rCC3 (His) and LRP6 (myc). (M) LRP6 M3 binds to CC3. The glutathione-Sepharose beads were incubated with the GST-M1-3. After washing, they were incubated with rCC3, followed by immunoblotting for rCC3 (His) and rGST-M1-3. (N and O) Transfected Robo1 enhances LRP6 binding to LGR5. 293 cells were co-transfected with the plasmids of LGR5 and LRP6, in the presence or absence of the Robo1 plasmid (N). Alternatively, 293 cells were co-transfected with the plasmids of LGR5, LRP6 and Robo1, followed by infection with Ad-GFP or Ad-CC3 (0). Lysates of these transfectants were immunoprecipitate for LRP6 (myc) and immunoblotted for LGR5 (flag), LRP6 (myc) and Robo1 (HA), respectively. (P) Endogenous Robo1 promotes LRP6 association with LGR5. […]
This example describes Rspo1 binds to extracellular Robo1. […] Indeed, the intestinal expression of Rspo1 was detected in the tissue sections of adult small intestine (FIG. 14). […]
For orientation: In western blotting, separated proteins are transferred to a membrane and probed.

Assay [3] has as its target T2, Native LRP6 of mouse small intestinal crypts (mouse, UniProt O88572 20-1613).
T2 construct: also called endogenous LRP6; endogenous Lrp6
In words: immunoprecipitation of endogenous Robo1 from crypt lysates of C57 small intestines, immunoblot (FIG. 15H).

Assay [4] addresses T3, Recombinant human Robo1 encoding the extracellular five Ig-like domains fused with the Fc domains of human … (human, UniProt Q9Y6N7 26-540; P01857 99-330 = IgG part).
T3 construct: domain: extracellular five Ig domains (1-1621 bp);domain: Fc domains of human IgG1; also called Robo1-Fc; rRobo1-Fc
In words: Protein A bead pulldown, immunoblot for His. How it is done:
as §1

Five molecules from patent US20160000865A1 (REGENTS OF THE UNIVERSITY OF MICHIGAN, published 2016) can be followed below.

T2 sequence (O88572 20-1613 limits assumed): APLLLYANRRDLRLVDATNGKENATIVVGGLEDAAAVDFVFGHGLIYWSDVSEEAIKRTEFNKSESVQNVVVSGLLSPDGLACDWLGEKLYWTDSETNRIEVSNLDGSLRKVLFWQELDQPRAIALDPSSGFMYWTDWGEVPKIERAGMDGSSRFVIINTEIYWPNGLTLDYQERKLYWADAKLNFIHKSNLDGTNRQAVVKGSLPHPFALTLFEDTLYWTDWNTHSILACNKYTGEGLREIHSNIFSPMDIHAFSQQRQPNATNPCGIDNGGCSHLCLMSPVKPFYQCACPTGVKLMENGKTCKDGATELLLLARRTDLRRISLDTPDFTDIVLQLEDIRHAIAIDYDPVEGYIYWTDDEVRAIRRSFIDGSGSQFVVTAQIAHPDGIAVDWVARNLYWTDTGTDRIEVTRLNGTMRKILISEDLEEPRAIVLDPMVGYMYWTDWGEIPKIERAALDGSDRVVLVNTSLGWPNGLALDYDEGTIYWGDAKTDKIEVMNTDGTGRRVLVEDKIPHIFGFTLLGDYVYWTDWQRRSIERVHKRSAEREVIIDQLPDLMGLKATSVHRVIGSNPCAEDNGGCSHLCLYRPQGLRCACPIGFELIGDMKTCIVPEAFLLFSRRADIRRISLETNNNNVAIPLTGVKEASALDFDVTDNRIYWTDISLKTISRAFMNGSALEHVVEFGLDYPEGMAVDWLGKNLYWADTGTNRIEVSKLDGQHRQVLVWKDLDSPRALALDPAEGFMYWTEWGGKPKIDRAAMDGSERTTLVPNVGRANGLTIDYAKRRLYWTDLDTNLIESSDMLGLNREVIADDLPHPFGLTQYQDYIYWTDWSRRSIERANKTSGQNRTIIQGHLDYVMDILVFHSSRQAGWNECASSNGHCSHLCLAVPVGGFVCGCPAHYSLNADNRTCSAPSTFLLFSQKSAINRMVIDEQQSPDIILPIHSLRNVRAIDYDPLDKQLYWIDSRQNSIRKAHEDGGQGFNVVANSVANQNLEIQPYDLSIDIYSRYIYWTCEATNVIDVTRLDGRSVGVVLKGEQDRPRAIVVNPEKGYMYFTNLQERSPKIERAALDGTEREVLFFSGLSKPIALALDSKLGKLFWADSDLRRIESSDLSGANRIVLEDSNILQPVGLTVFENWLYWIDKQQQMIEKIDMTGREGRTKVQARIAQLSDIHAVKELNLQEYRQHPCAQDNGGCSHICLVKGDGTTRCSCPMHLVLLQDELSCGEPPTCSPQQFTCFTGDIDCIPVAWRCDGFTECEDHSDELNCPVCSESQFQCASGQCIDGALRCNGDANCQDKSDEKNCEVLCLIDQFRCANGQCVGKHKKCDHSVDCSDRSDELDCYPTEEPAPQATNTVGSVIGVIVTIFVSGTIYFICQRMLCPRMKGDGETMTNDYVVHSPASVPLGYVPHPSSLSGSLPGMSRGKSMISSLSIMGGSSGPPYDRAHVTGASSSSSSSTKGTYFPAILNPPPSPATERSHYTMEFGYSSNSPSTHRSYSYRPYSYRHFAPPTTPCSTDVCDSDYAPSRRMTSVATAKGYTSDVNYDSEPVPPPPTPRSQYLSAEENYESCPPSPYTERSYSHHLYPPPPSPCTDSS
T3 sequence (Q9Y6N7 other isoform, or with tags, fused parts or gaps limits assumed): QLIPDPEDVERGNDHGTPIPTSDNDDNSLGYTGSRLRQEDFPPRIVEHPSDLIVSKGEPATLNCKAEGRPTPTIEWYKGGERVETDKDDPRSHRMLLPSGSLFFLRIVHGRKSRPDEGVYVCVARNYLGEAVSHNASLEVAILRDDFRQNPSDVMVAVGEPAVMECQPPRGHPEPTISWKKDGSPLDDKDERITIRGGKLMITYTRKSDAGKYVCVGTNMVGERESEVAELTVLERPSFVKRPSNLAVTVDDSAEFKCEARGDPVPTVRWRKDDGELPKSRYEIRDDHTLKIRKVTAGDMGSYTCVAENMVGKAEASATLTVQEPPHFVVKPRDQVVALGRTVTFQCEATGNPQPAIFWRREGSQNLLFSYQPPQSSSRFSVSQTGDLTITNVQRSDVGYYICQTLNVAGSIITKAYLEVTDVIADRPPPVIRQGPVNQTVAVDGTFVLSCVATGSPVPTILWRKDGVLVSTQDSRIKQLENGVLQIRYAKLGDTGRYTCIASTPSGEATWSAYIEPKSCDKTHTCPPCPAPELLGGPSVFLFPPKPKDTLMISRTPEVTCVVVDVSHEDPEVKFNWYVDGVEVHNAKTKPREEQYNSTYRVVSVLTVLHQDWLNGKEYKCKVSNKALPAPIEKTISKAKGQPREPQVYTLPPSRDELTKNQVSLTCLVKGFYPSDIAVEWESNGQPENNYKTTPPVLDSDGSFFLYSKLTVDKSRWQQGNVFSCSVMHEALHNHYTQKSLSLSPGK

As for B1, in assay [1], the binding result is listed as “no binding”.

Regarding B2, the binding result in assay [2] is “binds”.

With B3, the binding result in assay [3] is “binds”.

Turning to B4, the binding result in assay [1] was “no binding”.

For the molecule B5, the binding result in assay [4] is given as “no binding”.
